Experimental data taken from publication PMC2988884 (Nature structural & molecular biology, 2010).

T1: Trs120 with a C-terminal TAP tag (Trs120-TAP) (S. cerevisiae (endogenous in yeast), UniProt Q04183 1-1289)
T1 sequence (looked up): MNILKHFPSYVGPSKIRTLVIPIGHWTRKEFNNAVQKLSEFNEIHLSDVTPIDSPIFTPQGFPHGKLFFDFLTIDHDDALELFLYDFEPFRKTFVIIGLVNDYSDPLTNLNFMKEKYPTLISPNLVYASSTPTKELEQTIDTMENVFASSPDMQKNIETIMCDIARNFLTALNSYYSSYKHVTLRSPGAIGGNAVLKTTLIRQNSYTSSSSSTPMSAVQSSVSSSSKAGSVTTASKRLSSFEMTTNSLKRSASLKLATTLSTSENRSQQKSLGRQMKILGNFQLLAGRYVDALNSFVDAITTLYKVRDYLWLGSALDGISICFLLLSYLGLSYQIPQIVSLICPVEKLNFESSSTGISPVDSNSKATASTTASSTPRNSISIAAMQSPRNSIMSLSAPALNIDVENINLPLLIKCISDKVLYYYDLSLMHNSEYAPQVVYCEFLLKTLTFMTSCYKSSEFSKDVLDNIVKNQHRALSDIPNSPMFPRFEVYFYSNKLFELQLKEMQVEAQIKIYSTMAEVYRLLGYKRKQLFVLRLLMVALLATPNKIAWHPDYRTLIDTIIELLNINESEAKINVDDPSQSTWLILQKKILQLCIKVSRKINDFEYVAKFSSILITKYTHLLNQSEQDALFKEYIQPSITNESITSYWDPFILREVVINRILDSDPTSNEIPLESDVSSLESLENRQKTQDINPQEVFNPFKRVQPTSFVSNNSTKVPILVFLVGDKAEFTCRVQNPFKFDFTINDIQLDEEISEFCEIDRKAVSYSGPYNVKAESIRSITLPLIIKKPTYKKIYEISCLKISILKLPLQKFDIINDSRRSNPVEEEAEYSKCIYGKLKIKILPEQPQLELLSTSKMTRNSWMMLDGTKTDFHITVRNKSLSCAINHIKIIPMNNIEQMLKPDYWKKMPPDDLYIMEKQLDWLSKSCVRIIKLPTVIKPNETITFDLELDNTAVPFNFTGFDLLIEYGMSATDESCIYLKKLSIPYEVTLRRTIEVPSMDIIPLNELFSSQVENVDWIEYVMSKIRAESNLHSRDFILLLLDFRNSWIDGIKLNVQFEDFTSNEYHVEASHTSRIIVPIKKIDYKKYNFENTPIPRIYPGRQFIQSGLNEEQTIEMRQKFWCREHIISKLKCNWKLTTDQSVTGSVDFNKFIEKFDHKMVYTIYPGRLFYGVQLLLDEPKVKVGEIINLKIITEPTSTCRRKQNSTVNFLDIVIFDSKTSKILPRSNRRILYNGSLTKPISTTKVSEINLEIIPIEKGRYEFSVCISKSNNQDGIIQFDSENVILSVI

B1: Trs20 (natural protein, S. cerevisiae (endogenous in yeast), UniProt P38334 1-175, looked up)
chain: MPQYFAIIGKKDNPVYEIEFTNAENPQGFPQDLKELNPFILHASLDIVEDLQWQINPTSQLNGNGGNGSNGGGGFLRSRAVNNTDNCYLGKVDHFYGLAITAYISYSGMKFVMIHGNSANSSVVIDDNNMRSFYQEVHELYVKTLMNPFYKITDPIRSPAFDSRVRTLARKHLSK
B2: Trs33 (natural protein, S. cerevisiae (endogenous in yeast), UniProt Q99394 1-268, looked up)
chain: MSSTHSNNVGHPQSSPQGPLTEQQRAQQQYQIFENSLPKVSQSVYQMLLNEMVPLAMGIERQISGDVISSDSNVTSENGNINNMIKRLKIEEHHTVDIIRSHNLIHELYKADEEEKEKVLARLRNIGFQIGLKLSELLIFSNNPNLKFKEMDLLLIMKFICRDVWKQIFGKQIDNLKTNHRGTFYLLDYDYRPIQSFSLEEDAKNEELKMIEPFLEIPVGIIRGVLSSLGYSSEEVICLASFIDRPTDRPKTAFPKGVSFHVQVTMPQ
B3: Bet3 (natural protein, S. cerevisiae (endogenous in yeast), UniProt P36149 1-193, looked up)
chain: MVSTTQSRSLKAMGEEIWKNKTEKINTELFTLTYGSIVAQLCQDYERDFNKVNDHLYSMGYNIGCRLIEDFLARTALPRCENLVKTSEVLSKCAFKIFLNITPNITNWSHNKDTFSLILDENPLADFVELPMDAMKSLWYSNILCGVLKGSLEMVQLDCDVWFVSDILRGDSQTEIKVKLNRILKDEIPIGED
B4: Trs130 (natural protein, S. cerevisiae (endogenous in yeast), UniProt Q03660 1-1102, looked up)
chain: MDKEIYCGSVPVSYFDPFDLFESLRPEFQQILPLDNIHWKAFDGTVRTVNRLPIELIPEGRGEADKSNDEQPFIRFLIVNCISIDQYRAKVRPLVRQWLPNLESVSSSTGEKMIYKPIILLYANSEVVDSNLFKSVSLMEKFGKDFPHVQTLEVRSVYRSPKERQEFWNQFSQKIKASVLSIFQKRLTHLQHSLANLQKGNNFEEQLLTREKLYELYVVFNILEDASLELQKIKKEILRRNMNMPDGKLQVPFESSSKSDESLGSIIIEGTLDKFQLHKYFFIRRLRLLKLEDQTLTAFVGAFQLIKNFIESISIEYRKSVRLLEFKHYFITSMLSYFEFENVSNPLLCEIKAELLMLKRDNWVQGVMATSGYRLMDKNYPNSDVKYKFDLLKETFVDETVFQENFLTLTKEILSLFNKCEGKRQRIVDILSIEIGLLYYQGKKYEEAVSLFLSCYEYYTQTNWNSIGLKILQVFIDSLSHCPKLDVLQIDGESVSASAVLTNAFLNILKLCKDNDSKEIWWKKFMDLQMKNNIHLMYPLDGLFEVTLNSKVHLARANVSAIEVNLKSYGFPEDISTKTMRLSLKNMGGDVIVFGASDFLLKKGENKLILECRDIMYGEFSLLSFEIIVEGITFVKEFPENQDEFIVVPEIYCKESTKVLVKQAHNLNLGEYALELKSVQSDALESLQVEVEVQKNIGNMKNLPVSFSMDEIQARKRYNTPFENVRLEYYLLDQITAFDLIIKTSFTKKNDQGTFGETKKVRIQCYLQLSVSVEDIFKKDIFFFKFLLNSSVREEPVILYSSELSAPDTRNDYNIRGDYIATTPALITFDGNESFINCYEITANNNFDSKDIFNLKVRYNTLKEQLDCFITDAVLIEGDVEWFILFEKWKTFWELEILKKLKYDYDAFKENRIIRLLKTSIDLNKTKSKIRNLCIEKAVLDKILICLNKVSRGIAVCNTDMDEYVRNLVPKQLTVPVQLPGFEQFFHVQFEQMETSHDALHDTIATIGNSLSYTVIVENLSGQWGQDVIDDGGYIFEILSSNEWLIHGQKRCAIKEKRKEFEVHLIPLKKGYLNFPRVEITNINGKSCRVDHSNAFESILIF

How the values were obtained:
[1] = biological target: B4; experiment: single-particle EM
[2] = biological target: T1, Trs120 with a C-terminal TAP tag …; experiment: single-particle EM

binding result [1] | binding result [2] | Binder
binds |  | B1
 | binds | B2
 | binds | B3
 | binds | B4
